Laboratory results: US20180339041A1 (Kyowa Kirin, published 2018)

T1: C-terminally FLAG-tagged rat Gas6 recombinant protein (rGas6-F) (rat, UniProt Q63772 28-674, limits assumed, gamma-carboxylated glutamic acid residues in the Gla domain (producer cells co-express rat VKOR and human GGCX); positions not given)
T1 construct: also called rat Gas6-F
T1 sequence (looked up): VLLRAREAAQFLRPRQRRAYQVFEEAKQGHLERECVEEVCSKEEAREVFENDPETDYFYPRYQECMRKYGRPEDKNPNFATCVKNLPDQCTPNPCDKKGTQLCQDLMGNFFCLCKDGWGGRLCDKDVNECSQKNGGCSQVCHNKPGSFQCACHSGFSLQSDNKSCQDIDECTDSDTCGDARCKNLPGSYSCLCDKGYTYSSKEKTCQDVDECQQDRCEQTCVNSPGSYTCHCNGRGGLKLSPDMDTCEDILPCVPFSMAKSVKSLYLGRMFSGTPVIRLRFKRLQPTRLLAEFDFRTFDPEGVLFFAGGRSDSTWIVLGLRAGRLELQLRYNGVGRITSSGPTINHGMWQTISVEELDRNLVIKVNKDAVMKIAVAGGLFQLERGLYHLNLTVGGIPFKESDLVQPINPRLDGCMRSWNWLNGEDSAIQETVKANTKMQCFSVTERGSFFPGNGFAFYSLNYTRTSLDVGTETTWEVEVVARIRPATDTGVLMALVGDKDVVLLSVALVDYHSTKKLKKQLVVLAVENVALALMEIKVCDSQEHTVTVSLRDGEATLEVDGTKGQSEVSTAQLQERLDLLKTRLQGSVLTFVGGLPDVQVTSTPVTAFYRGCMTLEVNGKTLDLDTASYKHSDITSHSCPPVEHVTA

B1: anti-human Gas6 mouse monoclonal antibody KM5320 (KM5320-mKG1 antibody) (antibody, V domains shown)
VH: QIQLVQSGPELKKPGETVKISCKASGYTFTNYGMNWVKQAPGKGLKWMGWINTETGEPTYSDDFKGRFAFSLETSATTAYLQINNLRNEDMATYFCAREDGYYGTLDYWGQGTSVTVSS
VL: SIVMTQTPKFLLVSAGDRVTITCKASQSVSNDVAWYQQKPGQSPKVLIYYASNRYTGVPDRFTGSGYGTDFTFTISTVQAEDLAVYFCQQDYSSPWTFGGGTKLEIK
notes: Hybridoma-derived mouse IgG1, kappa; also called KM5320 antibody
B2: anti-human Gas6 mouse monoclonal antibody KM5321 (KM5321-mKG1 antibody) (antibody, V domains shown)
VH: QIQLVQSGPELKKPGETVKISCRASGYTFTNYGMNWVKQAPGKGLKWMGWINTNTGEPTYTEEFKGRFAFSLETSATTAYLQINDLKNEDTATYFCARDEGWFVYWGQGTLITVSA
VL: ETTVTQSPASLSVATGEKVTIRCITSTDIDDDMNWYQQKPGEPPKLLISEGNTLRPGVPSRFSSSGYGTDFVFTIENTLSEDVADYYCLQTDSVPLTFGAGTKLELK
notes: Hybridoma-derived mouse IgG1, kappa; also called KM5321 antibody

Molecular target: T1, C-terminally FLAG-tagged rat Gas6 …
Experiment: competition ELISA: rAxl-hFc coated; rGas6-F at 50 ng/mL final premixed with the antibody; bound Gas6-F detected with anti-FLAG M2-HRP; blocked partner rAxl-hFc (Examples 5(4) and 7) [B]

Binder | IC50 (read off the curve)
B1 | ~0.05 µg/mL
B2 | ~0.03 µg/mL
